# Assay results as given in patent US20200024360A1 (Janssen / Centocor, published 2020).
# Residue numbers refer to the chain shown, from its start. Names may count otherwise.
# B1: CD3B124 (antibody, V domains shown)
# VH: EVKLLESGGGLVQPKGSLKLSCAASGFTFNTYAMNWVRQAPGKGLEWVARIRSKYNNYATYYADSVKDRFTISRDDSQSILYLQMNNLKTEDTAMYYCVRHGNFGNSYVSWFAYWGQGTLVTVSA
# VL: QAVVTQESALTTSPGETVTLTCRSSTGAVTTSNYANWVQEKPDHLFTGLIGGTNKRAPGVPARFSGSLIGDKAALTITGAQTEDEAIYFCALWYSNLWVFGGGTKLTVL
# notes: also called chimeric SP34-derived antibody
# B2: CD3B150 (antibody, V domains shown)
# VH: EVQLLESGGGLVQPGGSLRLSCAASGFTFNTYAMNWVRQAPGKGLEWVARIRSKYNNYATYYADSVKGRFTISRDNSKNTLYLQMNSLRAEDTAVYYCAKHGNFGNSYVSWFAYWGQGTLVTVSS
# VL: QTVVTQEPSLTVSPGGTVTLTCRSSTGAVTTSNYANWVQQKPGQAPRGLIGGTNKRAPGTPARFSGSLLGGKAALTLSGVQPEDEAEYYCALWYSNLWVFGGGTKLTVL
# notes: also called CD3H142/CD3L66; CD3B50
# B3: CD3B147 (antibody, V domains shown)
# VH: B2 VH
# VL: B2 VL with T2A, V80A
# notes: also called CD3H142/CD3L63
# B4: CD3B148 (antibody, V domains shown)
# VH: B2 VH
# VL: QSVLTQPPSVSAAPGQKVTISCRSSTGAVTTSNYANWVQQLPGTAPKGLIGGTNKRAPGIPDRFSGSKSGTSATLGITGLQTGDEADYYCALWYSNLWVFGGGTKLTVL
# notes: also called CD3H142/CD3L64
# B5: CD3B146 (antibody, V domains shown)
# VH: B2 VH with L5V, D64A, N76D, T80S, R89K, A90T, K100R
# VL: B2 VL
# notes: also called CD3H141/CD3L66
# B6: CD3B151 (antibody, V domains shown)
# VH: B2 VH with A99V
# VL: B2 VL with T2A, V80A
# notes: also called CD3H143/CD3L63
# B7: CD3B158 (antibody, V domains shown)
# VH: EVQLVESGGGLVQPGGSLKLSCAASGFTFNTYAMNWVRQASGKGLEWVGRIRSKYNGYATYYAASVKGRFTISRDDSKNTAYLQMNSLKTEDTAVYYCTRHGNFGNSYVSWFAYWGQGTLVTVSS
# VL: B2 VL
# notes: also called CD3H144/CD3L66
# B8: CD3B143 (antibody, V domains shown)
# VH: B2 VH with L5V, D64A, N76D, T80S, R89K, A90T, K100R
# VL: B2 VL with T2A, V80A
# notes: also called CD3H141/CD3L63
# B9: CD3B156 (antibody, V domains shown)
# VH: B7 VH
# VL: B4 VL
# notes: also called CD3H144/CD3L64
# B10: CD3B154 (antibody, V domains shown)
# VH: B2 VH with A99V
# VL: B2 VL
# notes: also called CD3H143/CD3L66
# B11: CD3B155 (antibody, V domains shown)
# VH: B7 VH
# VL: B2 VL with T2A, V80A
# notes: also called CD3H144/CD3L63
# B12: PS3B72 (bispecific antibody, human IgG4 S228P, kappa, lambda, F234A L235A)
# heavy 1: not shown
# light 1: not shown
# heavy 2: EVQLVESGGGLVQPGGSLRLSCAASGFTFNTYAMNWVRQAPGKGLEWVARIRSKYNNYATYYAASVKGRFTISRDDSKNSLYLQMNSLKTEDTAVYYCARHGNFGNSYVSWFAYWGQGTLVTVSSASTKGPSVFPLAPCSRSTSESTAALGCLVKDYFPEPVTVSWNSGALTSGVHTFPAVLQSSGLYSLSSVVTVPSSSLGTKTYTCNVDHKPSNTKVDKRVESKYGPPCPPCPAPEAAGGPSVFLFPPKPKDTLMISRTPEVTCVVVDVSQEDPEVQFNWYVDGVEVHNAKTKPREEQFNSTYRVVSVLTVLHQDWLNGKEYKCKVSNKGLPSSIEKTISKAKGQPREPQVYTLPPSQEEMTKNQVSLTCLVKGFYPSDIAVEWESNGQPENNYKTTPPVLDSDGSFLLYSKLTVDKSRWQEGNVFSCSVMHEALHNHYTQKSLSLSLGK
# light 2: QTVVTQEPSLTVSPGGTVTLTCRSSTGAVTTSNYANWVQQKPGQAPRGLIGGTNKRAPGTPARFSGSLLGGKAALTLSGVQPEDEAEYYCALWYSNLWVFGGGTKLTVLGQPKAAPSVTLFPPSSEELQANKATLVCLISDFYPGAVTVAWKADSSPVKAGVETTTPSKQSNNKYAASSYLSLTPEQWKSHRSYSCQVTHEGSTVEKTVAPTECS
# notes: IgG4 PAA; PSMA arm first, then CD3 arm (F405L, R409K); also called PSMB360 x CD3B219
# B13: PS3B73 (bispecific antibody, human IgG4 S228P, kappa, lambda, F234A L235A)
# heavy 1: not shown
# light 1: not shown
# heavy 2: B12 heavy 2
# light 2: B12 light 2
# notes: IgG4 PAA; PSMA arm first, then CD3 arm (F405L, R409K); also called PSMB361 x CD3B219
# B14: PS3B75 (bispecific antibody, human IgG4 S228P, kappa, lambda, F234A L235A)
# heavy 1: not shown
# light 1: not shown
# heavy 2: B12 heavy 2
# light 2: B12 light 2
# notes: IgG4 PAA; PSMA arm first, then CD3 arm (F405L, R409K); also called PSMB363 x CD3B219
# B15: PS3B74 (bispecific antibody, human IgG4 S228P, kappa, lambda, F234A L235A)
# heavy 1: not shown
# light 1: not shown
# heavy 2: B12 heavy 2
# light 2: B12 light 2
# notes: IgG4 PAA; PSMA arm first, then CD3 arm (F405L, R409K); also called PSMB362 x CD3B219
# How the values were obtained:
# [1] = biological target: T1, cynomolgus CD3ε on primary cynomolgus CD4+ T cells (cynomolgus monkey, UniProt Q95LI5 22-198); experiment: flow cytometry on primary cynomolgus CD4+ T cells (CD3e), anti-human IgG (H+L) Alexa Fluor 647
# T1 construct: whole, on cells
# T1 sequence (Q95LI5 22-198): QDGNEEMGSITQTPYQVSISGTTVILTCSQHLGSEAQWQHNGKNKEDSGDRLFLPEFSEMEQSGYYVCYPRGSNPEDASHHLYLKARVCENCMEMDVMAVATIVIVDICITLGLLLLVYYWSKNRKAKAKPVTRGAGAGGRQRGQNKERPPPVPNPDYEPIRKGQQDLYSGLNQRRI
# Procedure: (§1) The resulting panel of anti-CD3 antibodies was tested for binding against cell-surface CD3ε on primary human T cells. To do this, binding of antibodies from expression supernatants was visualized using a polyclonal anti-human secondary antibody and analyzed by flow cytometry. Briefly, binding of anti-CD3 antibodies to cell-surface CD3E was assessed by flow cytometry using primary Human T lymphocytes purified by negative selection (Biological Specialty, Colmar, USA). Expression supernatants or purified antibodies were normalized to 10 μg/ml in media or FACS buffer (BD BioSciences), respectively. 2×10⁵ cells were aliquoted into wells of a 96 well round-bottomed plate (CoStar) for labeling. Antibodies in expression supernatant were added to cells and incubated for 45 min at 4° C. Following centrifugation at 1300 rpm for 3 min and removal of supernatant, 50 μL of anti-human IgG (H+L) Alexa Fluor 647 secondary antibody (Life technologies Inc.) was incubated with the cells at a final concentration of 10 μg/mL for 30 min at 4° C. away from direct light. Following washing and resuspension in 30 μL FACs buffer (BD BioSciences). Sample collection was performed on an Intellicyt HTFC system using ForeCyt software. Viable single cells were gated prior to analysis of binding using the green or red fixable live/dead dyes (Life Technologies Inc.) and forward/side scatter area and height parameters, respectively. Graphs were generated in GraphPad Prism version 5 using mean fluorescence intensity values.
# Binding analysis of the anti-CD3 hits to primary cynomolgus CD4⁺ T cells was then tested in order to assess the retention of cross-reactivity. Purified CD4⁺ T cells from the peripheral blood of cynomolgus monkeys (Zen Bio, Triangle Research Park, USA were used). Assay protocols were similar to those described above.
# [2] = biological target: T2, human CD3ε on primary human T cells (human, UniProt P07766 23-207); experiment: flow cytometry on primary human T cells (cell-surface CD3e), anti-human IgG (H+L) Alexa Fluor 647; one intermediate concentration of the titration is shown
# T2 construct: whole, on cells; Part of the TCR-CD3 complex on the cells; also called cell-surface CD3ε; CD3E
# T2 sequence (P07766 23-207): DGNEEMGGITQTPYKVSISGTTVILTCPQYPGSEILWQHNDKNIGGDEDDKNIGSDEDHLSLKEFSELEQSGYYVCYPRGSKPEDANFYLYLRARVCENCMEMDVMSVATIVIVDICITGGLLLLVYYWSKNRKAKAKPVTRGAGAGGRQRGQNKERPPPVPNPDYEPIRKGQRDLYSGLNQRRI
# Procedure: as §1
# [3] = biological target: T3, human PSMA (prostate specific membrane antigen), full length (human, UniProt Q04609 1-750); experiment: flow cytometry cell binding assay, bispecific antibody titrated on LNCaP cells (human PSMA)
# T3 construct: On LNCaP or C4-2B cells (endogenous) or transduced HEK293F cells; also called FOLH1_HUMAN; hPSMA
# T3 sequence (Q04609 whole entry): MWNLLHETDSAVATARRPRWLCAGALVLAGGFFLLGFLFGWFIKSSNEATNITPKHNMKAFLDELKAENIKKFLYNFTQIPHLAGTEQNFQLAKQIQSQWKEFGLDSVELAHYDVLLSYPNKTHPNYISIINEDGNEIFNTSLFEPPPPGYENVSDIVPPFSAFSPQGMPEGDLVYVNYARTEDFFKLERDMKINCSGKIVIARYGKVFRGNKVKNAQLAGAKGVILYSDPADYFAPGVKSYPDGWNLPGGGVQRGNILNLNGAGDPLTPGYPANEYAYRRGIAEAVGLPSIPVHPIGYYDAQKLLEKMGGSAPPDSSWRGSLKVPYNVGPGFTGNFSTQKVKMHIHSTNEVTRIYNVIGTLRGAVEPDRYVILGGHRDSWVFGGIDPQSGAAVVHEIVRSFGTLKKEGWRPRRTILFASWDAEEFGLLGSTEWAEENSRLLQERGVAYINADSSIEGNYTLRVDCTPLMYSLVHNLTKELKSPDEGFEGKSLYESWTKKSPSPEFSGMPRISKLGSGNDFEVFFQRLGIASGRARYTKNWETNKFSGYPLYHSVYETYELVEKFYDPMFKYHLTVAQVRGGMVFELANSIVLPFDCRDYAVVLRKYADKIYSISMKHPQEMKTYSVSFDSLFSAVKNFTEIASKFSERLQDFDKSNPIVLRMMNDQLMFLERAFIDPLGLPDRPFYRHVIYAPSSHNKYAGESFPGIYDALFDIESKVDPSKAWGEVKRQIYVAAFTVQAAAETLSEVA
# Procedure: PSMA×CD3 bispecific antibodies were tested for binding to PSMA positive cell lines LNCAP, human PSMA-HEK, Chimpanzee-PSMA-HEK and Cynomolgous monkey PSMA-HEK. To assess the binding capabilities of the PSMA bispecific antibodies, the cell-binding assay was utilized (described previously). Briefly, PSMA expressing tumor cells are bound by bispecific antibodies at known concentrations and the bound antibody is detected by an anti-human kappa light chain PE conjugated detection reagent (Invitrogen). The Mean Fluorescents Intensity (MFI) is the measure of bound bispecific antibody. The MFI is converted to a relative EC₅₀. EC₅₀ is a commonly used dose-response curve, where the half maximal effective concentration or the EC₅₀ point is defined as the inflection point of the curve. EC₅₀ s were determined by measuring cell bound bispecific and known concentrations. […] The dose response curves were then diluted down to that of background or no bispecific binding. The inflection point of this curve reflects the EC₅₀ point. The calculated EC₅₀ is determined by taking the ug/ml amount of bispecific antibody at the EC₅₀ point and converting it to a molarity value based on the MW of the bispecific antibody. Bispecific antibodies were normalized for protein concentration and then incubated with the same number of cells expressing either human or cyno PSMA. The MFI at each concentration was collected by flow cytometry and plotted as a function of concentration. Data was transformed via log 10 and then plotted. Nonlinear regression of binding curves was done to determine EC₅₀ s. These relative values were used for ranking PSMA binding to target cells.
# PSMA×CD3 bispecific antibodies were tested for binding to PSMA positive cell line, LNCAP, to PSMA negative cell line, PC3. To assess the binding capabilities of the PSMA bispecific antibodies, the cell-binding assay was utilized (described previously). Bispecific antibodies were normalized for protein concentration and then incubated with the same number of cells expressing either human or cyno PSMA. The MFI at each concentration was collected by flow cytometry and plotted as a function of concentration.
Binder,binding result [1],binding result [2],binding result [3]
B1,binds,–,–
B2,binds,binds,–
B3,binds,binds,–
B4,–,binds,–
B5,binds,binds,–
B6,binds,binds,–
B7,binds,binds,–
B8,binds,binds,–
B9,binds,binds,–
B10,binds,binds,–
B11,binds,binds,–
B12,–,–,binds
B13,–,–,binds
B14,–,–,binds
B15,–,–,binds
